Reference: article PMC12532034 (Cancer immunology research, 2025)

Biological target: T1, GST-Rb 379–928 (UniProt P06400 379-928)
T1 sequence (looked up): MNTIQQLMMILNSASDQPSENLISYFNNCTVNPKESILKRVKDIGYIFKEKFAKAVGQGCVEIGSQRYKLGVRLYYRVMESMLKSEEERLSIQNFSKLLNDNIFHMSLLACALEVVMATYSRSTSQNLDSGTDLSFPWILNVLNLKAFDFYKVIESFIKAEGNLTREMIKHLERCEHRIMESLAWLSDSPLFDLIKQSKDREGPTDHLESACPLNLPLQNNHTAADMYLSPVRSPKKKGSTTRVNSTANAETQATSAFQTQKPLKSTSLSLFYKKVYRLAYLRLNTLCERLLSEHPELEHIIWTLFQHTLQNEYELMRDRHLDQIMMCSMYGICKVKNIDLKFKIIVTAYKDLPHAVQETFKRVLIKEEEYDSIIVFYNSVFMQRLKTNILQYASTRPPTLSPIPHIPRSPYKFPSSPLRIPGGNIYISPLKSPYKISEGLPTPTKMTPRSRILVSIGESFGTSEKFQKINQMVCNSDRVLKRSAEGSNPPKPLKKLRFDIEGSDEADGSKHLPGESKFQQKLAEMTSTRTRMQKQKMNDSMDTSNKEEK
Assay: AlphaScreen or HTRF

binding result: binds
B1: MBP-E2F1 (natural protein)
chain: not shown
